US20200283478

Tests used:
[1] = test system: T1, Compound 29
T1 sequence: SGCFIPWNLQRIGLLC

[2] = test system: T2, Compound 26
T2 sequence: SGCFIPWNLQRIGLLC

[3] = test system: T3, Compound 112
T3 sequence: WNLVRIGLTR

[4] = test system: T4, Pep2-8
T4 sequence: TVFTSWEEYLDWV

## PCSK9-R167A:R215A:R218A
[1]
  FXIa cleavage of the P′ helix (immunoblot): accelerated the cleavage reaction, leading to almost complete cleavage of the P′ helix
[2]
  FXIa cleavage of the P′ helix (immunoblot): accelerated the cleavage reaction, leading to almost complete cleavage of the P′ helix
[3]
  FXIa cleavage of the P′ helix (immunoblot): able to increase the FXIa-mediated cleavage of the P′ helix at R160-I161 in a similar fashion as shown for Fab33
[4]
  FXIa cleavage of the P′ helix (immunoblot): largely prevented cleavage of the P′ helix by FXIa
